US20140087995A1 (published 2014)
Numbered stars: 1 amine (or outer) side, 2 acyl side, 3 side chain; on linkers, the order of the positions; unused ones are H or OH. Bridge positions count the residues as written; N and C are the ends. Side chains are listed from the residue outwards. Ends that are not written are not given here. * marks the point of attachment. C20 diacid = O=C(O)CCCCCCCCCCCCCCCCCCC(=O)*; γGlu = O=C(O)[C@H](CCC(=O)[*:2])N[*:1]; AEEA = NCCOCCOCC(=O)O

T1: human amylin receptor (amylin 3(a) receptor: human calcitonin receptor co-expressed with RAMP-3) (human, UniProt P30988 25-474; O60896 24-148, limits assumed)
T1 sequence (looked up) 1: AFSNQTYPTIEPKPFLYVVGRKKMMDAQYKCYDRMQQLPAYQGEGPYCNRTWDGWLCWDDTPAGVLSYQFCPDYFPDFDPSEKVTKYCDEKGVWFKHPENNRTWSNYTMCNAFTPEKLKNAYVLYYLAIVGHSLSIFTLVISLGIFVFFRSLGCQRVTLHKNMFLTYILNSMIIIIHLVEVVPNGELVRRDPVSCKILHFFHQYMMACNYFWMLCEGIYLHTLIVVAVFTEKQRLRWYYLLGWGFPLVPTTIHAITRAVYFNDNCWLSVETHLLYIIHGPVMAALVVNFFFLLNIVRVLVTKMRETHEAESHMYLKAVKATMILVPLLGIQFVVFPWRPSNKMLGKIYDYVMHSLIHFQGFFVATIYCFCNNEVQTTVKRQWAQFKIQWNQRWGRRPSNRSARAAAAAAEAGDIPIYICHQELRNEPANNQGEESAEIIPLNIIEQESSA
T1 sequence (looked up) 2: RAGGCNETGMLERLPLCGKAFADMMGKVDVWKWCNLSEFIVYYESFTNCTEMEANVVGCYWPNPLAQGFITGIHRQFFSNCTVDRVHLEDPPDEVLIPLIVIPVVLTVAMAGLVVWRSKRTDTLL

T2: human calcitonin receptor (human, UniProt P30988 25-474)
T2 sequence (looked up): T1 sequence (looked up) 1

B1: N^ε1-[2-[2-[2-[[(4S)-4-carboxy-4-(19-carboxynonadecanoylamino)butanoyl]amino]ethoxy]ethoxy]acetyl]-[Arg17,Pro21,Pro27,Pro28,Pro34]-h-amylin (peptide)
peptide: K([AEEA-γGlu-C20 diacid])CNTATCATQRLANFLRHSSPNFGAIPPSTNVGPNTY-NH2
modifications: disulfide 2-7; N-terminus assumed
SMILES: CC[C@H](C)[C@H](NC(=O)[C@H](C)NC(=O)CNC(=O)[C@H](Cc1ccccc1)NC(=O)[C@H](CC(N)=O)NC(=O)[C@@H]1CCCN1C(=O)[C@H](CO)NC(=O)[C@H](CO)NC(=O)[C@H](Cc1c[nH]cn1)NC(=O)[C@H](CCCNC(=N)N)NC(=O)[C@H](CC(C)C)NC(=O)[C@H](Cc1ccccc1)NC(=O)[C@H](CC(N)=O)NC(=O)[C@H](C)NC(=O)[C@H](CC(C)C)NC(=O)[C@H](CCCNC(=N)N)NC(=O)[C@H](CCC(N)=O)NC(=O)[C@@H](NC(=O)[C@H](C)NC(=O)[C@@H]1CSSC[C@H](NC(=O)[C@@H](N)CCCCNC(=O)COCCOCCNC(=O)CC[C@H](NC(=O)CCCCCCCCCCCCCCCCCCC(=O)O)C(=O)O)C(=O)N[C@@H](CC(N)=O)C(=O)N[C@@H]([C@@H](C)O)C(=O)N[C@@H](C)C(=O)N[C@@H]([C@@H](C)O)C(=O)N1)[C@@H](C)O)C(=O)N1CCC[C@H]1C(=O)N1CCC[C@H]1C(=O)N[C@@H](CO)C(=O)N[C@H](C(=O)N[C@@H](CC(N)=O)C(=O)N[C@H](C(=O)NCC(=O)N1CCC[C@H]1C(=O)N[C@@H](CC(N)=O)C(=O)N[C@H](C(=O)N[C@@H](Cc1ccc(O)cc1)C(N)=O)[C@@H](C)O)C(C)C)[C@@H](C)O
notes: also called compound 55
B2: N^ε1-[2-[2-[2-[[(4S)-4-carboxy-4-(19-carboxynonadecanoylamino)butanoyl]amino]ethoxy]ethoxy]acetyl]-[His14,Arg17,Pro21,Pro27,Arg34]-h-amylin (peptide)
peptide: K([AEEA-γGlu-C20 diacid])CNTATCATQRLAHFLRHSSPNFGAIPSSTNVGRNTY-NH2
modifications: disulfide 2-7; N-terminus assumed
SMILES: CC[C@H](C)[C@H](NC(=O)[C@H](C)NC(=O)CNC(=O)[C@H](Cc1ccccc1)NC(=O)[C@H](CC(N)=O)NC(=O)[C@@H]1CCCN1C(=O)[C@H](CO)NC(=O)[C@H](CO)NC(=O)[C@H](Cc1c[nH]cn1)NC(=O)[C@H](CCCNC(=N)N)NC(=O)[C@H](CC(C)C)NC(=O)[C@H](Cc1ccccc1)NC(=O)[C@H](Cc1c[nH]cn1)NC(=O)[C@H](C)NC(=O)[C@H](CC(C)C)NC(=O)[C@H](CCCNC(=N)N)NC(=O)[C@H](CCC(N)=O)NC(=O)[C@@H](NC(=O)[C@H](C)NC(=O)[C@@H]1CSSC[C@H](NC(=O)[C@@H](N)CCCCNC(=O)COCCOCCNC(=O)CC[C@H](NC(=O)CCCCCCCCCCCCCCCCCCC(=O)O)C(=O)O)C(=O)N[C@@H](CC(N)=O)C(=O)N[C@@H]([C@@H](C)O)C(=O)N[C@@H](C)C(=O)N[C@@H]([C@@H](C)O)C(=O)N1)[C@@H](C)O)C(=O)N1CCC[C@H]1C(=O)N[C@@H](CO)C(=O)N[C@@H](CO)C(=O)N[C@H](C(=O)N[C@@H](CC(N)=O)C(=O)N[C@H](C(=O)NCC(=O)N[C@@H](CCCNC(=N)N)C(=O)N[C@@H](CC(N)=O)C(=O)N[C@H](C(=O)N[C@@H](Cc1ccc(O)cc1)C(N)=O)[C@@H](C)O)C(C)C)[C@@H](C)O
notes: also called compound 84
B3: N^ε1-[2-[2-[2-[[(4S)-4-carboxy-4-(19-carboxynonadecanoylamino)butanoyl]amino]ethoxy]ethoxy]acetyl]-[Arg17,Pro21,Pro27,Pro29,Pro34]-h-amylin (peptide)
peptide: K([AEEA-γGlu-C20 diacid])CNTATCATQRLANFLRHSSPNFGAIPSPTNVGPNTY-NH2
modifications: disulfide 2-7; N-terminus assumed
SMILES: CC[C@H](C)[C@H](NC(=O)[C@H](C)NC(=O)CNC(=O)[C@H](Cc1ccccc1)NC(=O)[C@H](CC(N)=O)NC(=O)[C@@H]1CCCN1C(=O)[C@H](CO)NC(=O)[C@H](CO)NC(=O)[C@H](Cc1c[nH]cn1)NC(=O)[C@H](CCCNC(=N)N)NC(=O)[C@H](CC(C)C)NC(=O)[C@H](Cc1ccccc1)NC(=O)[C@H](CC(N)=O)NC(=O)[C@H](C)NC(=O)[C@H](CC(C)C)NC(=O)[C@H](CCCNC(=N)N)NC(=O)[C@H](CCC(N)=O)NC(=O)[C@@H](NC(=O)[C@H](C)NC(=O)[C@@H]1CSSC[C@H](NC(=O)[C@@H](N)CCCCNC(=O)COCCOCCNC(=O)CC[C@H](NC(=O)CCCCCCCCCCCCCCCCCCC(=O)O)C(=O)O)C(=O)N[C@@H](CC(N)=O)C(=O)N[C@@H]([C@@H](C)O)C(=O)N[C@@H](C)C(=O)N[C@@H]([C@@H](C)O)C(=O)N1)[C@@H](C)O)C(=O)N1CCC[C@H]1C(=O)N[C@@H](CO)C(=O)N1CCC[C@H]1C(=O)N[C@H](C(=O)N[C@@H](CC(N)=O)C(=O)N[C@H](C(=O)NCC(=O)N1CCC[C@H]1C(=O)N[C@@H](CC(N)=O)C(=O)N[C@H](C(=O)N[C@@H](Cc1ccc(O)cc1)C(N)=O)[C@@H](C)O)C(C)C)[C@@H](C)O
notes: also called compound 56
B4: N^ε1-[2-[2-[2-[[(4S)-4-carboxy-4-(19-carboxynonadecanoylamino)butanoyl]amino]ethoxy]ethoxy]acetyl]-[Gly14,Arg17,Pro21,Pro27,Pro31]-h-amylin (peptide)
peptide: K([AEEA-γGlu-C20 diacid])CNTATCATQRLAGFLRHSSPNFGAIPSSTPVGSNTY-NH2
modifications: disulfide 2-7; N-terminus assumed
SMILES: CC[C@H](C)[C@H](NC(=O)[C@H](C)NC(=O)CNC(=O)[C@H](Cc1ccccc1)NC(=O)[C@H](CC(N)=O)NC(=O)[C@@H]1CCCN1C(=O)[C@H](CO)NC(=O)[C@H](CO)NC(=O)[C@H](Cc1c[nH]cn1)NC(=O)[C@H](CCCNC(=N)N)NC(=O)[C@H](CC(C)C)NC(=O)[C@H](Cc1ccccc1)NC(=O)CNC(=O)[C@H](C)NC(=O)[C@H](CC(C)C)NC(=O)[C@H](CCCNC(=N)N)NC(=O)[C@H](CCC(N)=O)NC(=O)[C@@H](NC(=O)[C@H](C)NC(=O)[C@@H]1CSSC[C@H](NC(=O)[C@@H](N)CCCCNC(=O)COCCOCCNC(=O)CC[C@H](NC(=O)CCCCCCCCCCCCCCCCCCC(=O)O)C(=O)O)C(=O)N[C@@H](CC(N)=O)C(=O)N[C@@H]([C@@H](C)O)C(=O)N[C@@H](C)C(=O)N[C@@H]([C@@H](C)O)C(=O)N1)[C@@H](C)O)C(=O)N1CCC[C@H]1C(=O)N[C@@H](CO)C(=O)N[C@@H](CO)C(=O)N[C@H](C(=O)N1CCC[C@H]1C(=O)N[C@H](C(=O)NCC(=O)N[C@@H](CO)C(=O)N[C@@H](CC(N)=O)C(=O)N[C@H](C(=O)N[C@@H](Cc1ccc(O)cc1)C(N)=O)[C@@H](C)O)C(C)C)[C@@H](C)O
notes: also called compound 71
B5: N^ε1-[2-[2-[2-[[(4S)-4-carboxy-4-(19-carboxynonadecanoylamino)butanoyl]amino]ethoxy]ethoxy]acetyl]-[Arg17,Pro21,Pro27,Pro31,His35]-h-amylin (peptide)
peptide: K([AEEA-γGlu-C20 diacid])CNTATCATQRLANFLRHSSPNFGAIPSSTPVGSHTY-NH2
modifications: disulfide 2-7; N-terminus assumed
SMILES: CC[C@H](C)[C@H](NC(=O)[C@H](C)NC(=O)CNC(=O)[C@H](Cc1ccccc1)NC(=O)[C@H](CC(N)=O)NC(=O)[C@@H]1CCCN1C(=O)[C@H](CO)NC(=O)[C@H](CO)NC(=O)[C@H](Cc1c[nH]cn1)NC(=O)[C@H](CCCNC(=N)N)NC(=O)[C@H](CC(C)C)NC(=O)[C@H](Cc1ccccc1)NC(=O)[C@H](CC(N)=O)NC(=O)[C@H](C)NC(=O)[C@H](CC(C)C)NC(=O)[C@H](CCCNC(=N)N)NC(=O)[C@H](CCC(N)=O)NC(=O)[C@@H](NC(=O)[C@H](C)NC(=O)[C@@H]1CSSC[C@H](NC(=O)[C@@H](N)CCCCNC(=O)COCCOCCNC(=O)CC[C@H](NC(=O)CCCCCCCCCCCCCCCCCCC(=O)O)C(=O)O)C(=O)N[C@@H](CC(N)=O)C(=O)N[C@@H]([C@@H](C)O)C(=O)N[C@@H](C)C(=O)N[C@@H]([C@@H](C)O)C(=O)N1)[C@@H](C)O)C(=O)N1CCC[C@H]1C(=O)N[C@@H](CO)C(=O)N[C@@H](CO)C(=O)N[C@H](C(=O)N1CCC[C@H]1C(=O)N[C@H](C(=O)NCC(=O)N[C@@H](CO)C(=O)N[C@@H](Cc1c[nH]cn1)C(=O)N[C@H](C(=O)N[C@@H](Cc1ccc(O)cc1)C(N)=O)[C@@H](C)O)C(C)C)[C@@H](C)O
notes: also called compound 57
B6: N^ε1-[2-[2-[2-[[(4S)-4-carboxy-4-(19-carboxynonadecanoylamino)butanoyl]amino]ethoxy]ethoxy]acetyl]-[Arg17,Pro21,Pro27,Pro34,His35]-h-amylin (peptide)
peptide: K([AEEA-γGlu-C20 diacid])CNTATCATQRLANFLRHSSPNFGAIPSSTNVGPHTY-NH2
modifications: disulfide 2-7; N-terminus assumed
SMILES: CC[C@H](C)[C@H](NC(=O)[C@H](C)NC(=O)CNC(=O)[C@H](Cc1ccccc1)NC(=O)[C@H](CC(N)=O)NC(=O)[C@@H]1CCCN1C(=O)[C@H](CO)NC(=O)[C@H](CO)NC(=O)[C@H](Cc1c[nH]cn1)NC(=O)[C@H](CCCNC(=N)N)NC(=O)[C@H](CC(C)C)NC(=O)[C@H](Cc1ccccc1)NC(=O)[C@H](CC(N)=O)NC(=O)[C@H](C)NC(=O)[C@H](CC(C)C)NC(=O)[C@H](CCCNC(=N)N)NC(=O)[C@H](CCC(N)=O)NC(=O)[C@@H](NC(=O)[C@H](C)NC(=O)[C@@H]1CSSC[C@H](NC(=O)[C@@H](N)CCCCNC(=O)COCCOCCNC(=O)CC[C@H](NC(=O)CCCCCCCCCCCCCCCCCCC(=O)O)C(=O)O)C(=O)N[C@@H](CC(N)=O)C(=O)N[C@@H]([C@@H](C)O)C(=O)N[C@@H](C)C(=O)N[C@@H]([C@@H](C)O)C(=O)N1)[C@@H](C)O)C(=O)N1CCC[C@H]1C(=O)N[C@@H](CO)C(=O)N[C@@H](CO)C(=O)N[C@H](C(=O)N[C@@H](CC(N)=O)C(=O)N[C@H](C(=O)NCC(=O)N1CCC[C@H]1C(=O)N[C@@H](Cc1c[nH]cn1)C(=O)N[C@H](C(=O)N[C@@H](Cc1ccc(O)cc1)C(N)=O)[C@@H](C)O)C(C)C)[C@@H](C)O
notes: also called compound 58

Molecular target: T1, human amylin receptor (amylin 3(a) …)
Experiment: cell-based or functional assay

Row | Binder | hAmylin-R funct. EC50 | Ratio hCT/hAmylin funct.
1 | B1 | 0.068 nM | 
2 | B2 | 0.169 nM | 32.5
3 | B3 | 0.102 nM | 
4 | B4 | 0.056 nM | 
5 | B5 | 0.089 nM | 
6 | B6 | 0.047 nM | 

Molecular target: T2, human calcitonin receptor
Experiment: cell-based or functional assay

Row | Binder | hCTR funct. EC50
7 | B1 | 0.731 nM
8 | B2 | 5.49 nM
9 | B3 | 0.506 nM
10 | B4 | 0.527 nM
11 | B5 | 3.12 nM
12 | B6 | 1.03 nM
